Test results reported in patent US20040120954A1, “Regulation of mt1-mmp activity” (priority 2000, published 2004).

Tests used:
[1] = target: MT1-F/NGFR (chimera of the ectodomain of MT1-F with the transmembrane/cytoplasmic domain of NGFR) (human) (UniProt P50281); assay: competition with the dimer formation of MT1-F/NGFR in co-transfected COS1 cells, PY20 Western blot (FIG. 10)
[2] = target: MT1-F/NGFR (chimera of the ectodomain of MT1-F with the transmembrane/cytoplasmic domain of NGFR) (human) (UniProt P50281); assay: COS1 cells co-transfected with MT1-F/NGFR, Rac1DA and MT1PEX-F, PY20 Western blot (FIG. 24)
[3] = target: Membrane-type 1 matrix metalloproteinase (MT1-MMP) (human) (UniProt P50281)
[4] = target: FLAG epitope-tagged MT1-MMP (MT1-F) (human) (UniProt P50281); assay: binding of 25 nM 125I-labeled TIMP-2 to transfected CHO-K1 cells at 0 C, with and without BB-94

Substance | inhibition of the phosphorylation of MT1-F/NGFR [1] [%] | decrease of the phosphotyrosine signal of MT1-F/NGFR [2] [%] | Matrigel invasion by HT1080 cells (GFP-positive invading cells) [3] [%] | decrease in TIMP-2 binding on the cell surface on co-transfection of MT1PEX-F, against MT1-F alone [4] [%]
Catalytic domain-deleted FLAG-tagged MT1-MMP (MT1PEX-F) (from UniProt P50281) | > 90 | 43 | 70 | 
Recombinant human TIMP-2 (tissue inhibitor of metalloproteinase-2) (from UniProt P16035) |  |  |  | 37
